Assay [1] deals with H3 LAH.
For assay [2], the target named is H3 LAH. The assay is described as follows: ELISA on H3 LAH at 15.625 ng/mL clone 5. Background: ELISA stands for enzyme-linked immunosorbent assay.
Assay [3] addresses Recombinant HA antigen H10, A/mallard/Interior Alaska/10BM01929R0/2010 (H10N7) (influenza A virus A/mallard/Interior Alaska/10BM01929R0/2010 (H10N7)). As to the kind of experiment: ELISA on plate-coated recombinant HA; AUC of the absorbance (490 nm) curve.
In assay [4] the target is Recombinant HA antigen H18, A/flat-faced bat/Peru/033/2010 (H18N11) (influenza A virus A/flat-faced bat/Peru/033/2010 (H18N11)). The description is as above.
The target in assay [5] is Recombinant HA antigen A/Narita/1/2009 (H1N1pdm09) (influenza A virus A/Narita/1/2009 (H1N1pdm09)). The description is as above.
Assay [6] has as its target Recombinant HA antigen H2, A/Japan/305/57 (H2N2) (influenza A virus A/Japan/305/57 (H2N2)) (UniProt P03451). The assay is described as above.
The target of assay [7] is Recombinant HA antigen H5, A/Laos/JP127/2004 (H5N1) (influenza A virus A/Laos/JP127/2004 (H5N1)). The assay is described as above.
Assay [8] deals with Recombinant HA antigen H12, A/mallard/Interior Alaska/7MP0167/2007 (H12N5) (influenza A virus A/mallard/Interior Alaska/7MP0167/2007 (H12N5)). The description is as above.
In assay [9] the target is Recombinant HA antigen H15, A/shearwater/Australia/2576/1979 (H15N9) (influenza A virus A/shearwater/Australia/2576/1979 (H15N9)). Described as above.
In assay [10] the target is Recombinant HA antigen H3, A/Hong Kong/1/68 (H3N2) (influenza A virus A/Hong Kong/1/68 (H3N2)) (UniProt Q91MA7). Described as above.
For assay [11], the target named is Recombinant HA antigen H4, A/duck/Czechoslovakia/1956 (H4N6) (influenza A virus A/duck/Czechoslovakia/1956 (H4N6)) (UniProt P19696). The description is as above.
Assay [12] deals with Recombinant HA antigen H14, A/mallard/Astrakhan/263/1982 (H14N5) (influenza A virus A/mallard/Astrakhan/263/1982 (H14N5)). The description is as above.
Assay [13] concerns the target Recombinant HA antigen H8, A/mallard/Sweden/24/2002 (H8N4) (influenza A virus A/mallard/Sweden/24/2002 (H8N4)). The assay is described as above.
In assay [14] the target is Recombinant HA antigen H1, A/South Carolina/1/1918 (H1N1) (influenza A virus A/South Carolina/1/1918 (H1N1)) (UniProt Q9WFX3). The description is as above.
The target in assay [15] is Recombinant HA antigen A/Anhui/1/2013 (H7N9) (influenza A virus A/Anhui/1/2013 (H7N9)). The assay is described as above.
For assay [16], the target named is Recombinant HA antigen H11, A/northern shoveler/Netherlands/18/1999 (H11N9) (influenza A virus A/northern shoveler/Netherlands/18/1999 (H11N9)). Described as above.
Assay [17] addresses Recombinant HA antigen H17, A/little yellow-shouldered bat/Guatemala/060/2010 (H17N10) (influenza A virus A/little yellow-shouldered bat/Guatemala/060/2010 (H17N10)). The assay is described as above.
In assay [18] the target is Recombinant HA antigen H6, A/mallard/Sweden/81/2002 (H6N1) (influenza A virus A/mallard/Sweden/81/2002 (H6N1)). The description is as above.
Assay [19] deals with Recombinant HA antigen H9, A/guinea fowl/Hong Kong/WF10/99 (H9N2) (influenza A virus A/guinea fowl/Hong Kong/WF10/99 (H9N2)). The description is as above.
Assay [20] concerns the target Recombinant HA antigen H13, A/black-headed gull/Sweden/1/1999 (H13N6) (influenza A virus A/black-headed gull/Sweden/1/1999 (H13N6)). Described as above.
Assay [21] has as its target Recombinant HA antigen H16, A/black-headed gull/Sweden/5/99 (H16N3) (influenza A virus A/black-headed gull/Sweden/5/99 (H16N3)). Described as above.

B1: Clone 5 (antibody, V domains shown)
VH: QVQLQESGPGLVKPSETLSLTCTVSGVSMNSNHWSWIRQAPGKELEWIGYIYYTGKTFYNPSLQSRVTVSLDTSKNQFYLKLTSVTAADTAVYYCARRAMASVQRGILRVFDLWGQGKMVTVSS
VL: DIQMTQSPSTLSASVGDRVTITCRASQIIDKWLAWYQHKPGKAPKLLIYEASNLETGVPSRFSGSGSGTEFTLTISSLQPDDFATYFCQQYKSYLPYTFGQGTKLEIK
As to B1, in the assay with H3 LAH [1], the titer was determined as 0.92 AU/mL. In the assay with H3 LAH [2], this molecule displayed an absorbance of 0.877 absorbance.

B2: Clone 6 (antibody, V domains shown)
VH: QVQLEQSGAEVKKPGSSVKVSCKASGPMFSRSAFSWVRQAPGQGLEWMGRIIPTVDLKNYAQKFQGRVTFTADKSTATSYMELRSLKSEDTAVYYCARMGSGSSYYGMDVWGLGTTVTVSS
VL: DIVMTQSPLSLPVIPGEPASISCRSSQSLLQSNGNNYLDWYLQKPGQSPQLLIYLGSNRASGVPDRFSGSGSGTDFTLTISRVEAEDVGVYYCLQARQSSVLTFGGGTKLEIK
In the case of B2, the AUC value in assay [3] worked out at 3330; in assay [4], 3240; in assay [5], 2480; in assay [6], 3310; in assay [7], 3240; in assay [8], 98.5. The AUC value worked out at 3360 in [9]; 3300 in assay [10]; 3310 in assay [11]; 3360 in assay [12]; 474 in assay [13]; 3360 in assay [14]. For the same molecule, the AUC value in [15] worked out at 3320; in assay [16] it was 757; in assay [17] it was 3370; in [18], 2800; in [19], 632; in [20], 117. For the same molecule, in [21], the AUC value worked out at 290.

B3: Clone 7 (antibody, V domains shown)
VH: QVQLQESGPGLVKPSETLSLTCSVSGGPLTSSTYFWGWIRQPPGKGLEWLGSINFRGTTDNAPSLKSRVTLSIDTSTHQFSLRLSSVTAKDTAVYYCARHTQRLTVFTVVHGFDLWGQGTVVSVSS
VL: QSALTQPASVSGSPGQSITISCTGATGDIGVSDFVSWYQQHPGKAPKLIIFDVTNRPSGVSNRFSGSKSVNTASLTISGLQAEDEADYYCCLYSTRSRDWEFGGGTKLTVL
Turning to B3, the AUC value in [3] was determined as 3220; in assay [4], 3160; in [5] it was 3350; in [6], 3300; in assay [7], 3290; in assay [8] it was 3340. Also, the AUC value in [9] was found to be 3270; in assay [11] it was 3250; in assay [12], 3320; in assay [13], 3320; in [14], 3320; in [15] it was 3260. Besides, the AUC value in [16] was 300; in [17], 3350; in assay [18], 3220; in [19] it was 3240; in assay [20] it was 1560; in [21], 3200.

These data come from EP4703377A1.
